Assay results taken from patent US20200079861A1 (AGENUS, published 2020).
Positions count from the first letter of the chain named. In names and notes the source's numbering stands. Blank lines part the entries; values can stand above or below the binder they belong to.

What was measured:
human GITR (on cells) = target: T1, human GITR (on cells) (human, UniProt Q9Y5U5 26-241); test: flow cytometry on Jurkat cells expressing GITR only
T1 construct: Swiss-Prot Q9Y5U5-1 is printed; also called huGITR; wild type human GITR
T1 sequence: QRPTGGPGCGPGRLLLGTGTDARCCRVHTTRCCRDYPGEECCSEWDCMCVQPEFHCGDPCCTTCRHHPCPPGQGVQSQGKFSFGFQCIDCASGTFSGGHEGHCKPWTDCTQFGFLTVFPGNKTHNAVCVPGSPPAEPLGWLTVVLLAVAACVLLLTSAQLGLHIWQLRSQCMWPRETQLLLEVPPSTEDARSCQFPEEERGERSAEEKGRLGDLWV
Method: (§1) Hut102 cells (human T cell lymphoma, ATCC) were incubated for 72 hours in RPMI media, supplemented with 1 μg/ml phytohaemagglutinin (PHA) and 10% heat-inactivated FBS, at 37° C. and 5% CO₂ to induce GITR and OX40 expression. Cells ectopically expressing GITR or OX40 were generated by transduction of lentiviral vectors (EF1a promoter) into Jurkat cells. Stable clones were generated via single-cell sorting (FACS ARIA Fusion). Expression was verified by flow cytometry. For binding analysis, stable Jurkat cells or activated Hut102 cells were incubated with test antibodies (12-point dose titration, 0.01-10,000 ng/ml) diluted in FACS buffer (PBS, 2 mM EDTA, 0.5% BSA, pH 7.2) for 30 minutes at 4° C. Samples were washed two times in FACS buffer and then incubated with APC-conjugated mouse anti-human kappa detection antibody (Life Technologies, HP6062) for 30 minutes at 4° C. Samples were then washed two times and analyzed using the LSRFortessa flow cytometer (BD Biosciences). FACS plots were analyzed using a combination of FACS DIVA and WEHI Weasel software. Data were plotted with Graphpad Prism software.

[1] = target: T2, human GITR G63A mutant (on 1624-5 cells) (human, UniProt Q9Y5U5 26-241); test: flow cytometry on 1624-5 cells, 2 µg/ml antibody, MFI ratio to polyclonal antibody, mutant versus wild type
T2 chain: T1 sequence with G38A
Method: (§2) An average MFI ratio (“AMFI ratio”) was calculated based on the individual MFI ratios for all the mutants. […] An individual MFI ratio that is between 30% and 60% of the AMFI ratio is represented by “+/−” in FIG. 10A. An individual MFI ratio that is below 30% of the AMFI ratio is represented by “−” in FIG. 10A.
(§3) All the mean fluorescence intensity (MFI) values were calculated as the mean of two measurements.

[2] = target: T3, V1M cynomolgus GITR (on 1624-5 cells) (cynomolgus, UniProt Q9Y5U5 26-241 (human entry)); test: flow cytometry on 1624-5 cells
T3 chain: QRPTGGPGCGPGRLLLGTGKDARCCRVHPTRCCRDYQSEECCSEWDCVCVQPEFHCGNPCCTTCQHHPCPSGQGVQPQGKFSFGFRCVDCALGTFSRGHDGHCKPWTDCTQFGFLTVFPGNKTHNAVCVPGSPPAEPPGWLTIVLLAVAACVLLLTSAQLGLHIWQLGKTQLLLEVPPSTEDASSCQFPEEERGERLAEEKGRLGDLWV
Method: (§4) After washing, the cells were incubated with a secondary anti-IgG antibody if necessary for detection (APC conjugated; BD Cat no. 109-136-097) diluted in 100 μl FACS buffer (PBS+2% FCS) for 20 min at 4° C. The cells were then washed and acquired using a flow cytometer (BD Biosciences). The mean fluorescence intensity (MFI) value of the tested monoclonal antibody was divided by the MFI value of the polyclonal antibody, generating an MFI ratio (monoclonal antibody/polyclonal antibody) for individual GITR alanine mutants. An average MFI ratio (“AMFI ratio”) was calculated based on the individual MFI ratios for all the mutants. […] An individual MFI ratio that is between 30% and 60% of the AMFI ratio is represented by “+/−” in FIG. 10A. An individual MFI ratio that is below 30% of the AMFI ratio is represented by “−” in FIG. 10A.
(§5) As further evidence for the binding characteristics of the anti-GITR antibodies, the binding of the antibodies to cynomolgus GITR was compared. The immature protein of cynomolgus GITR comprises the amino acid sequence of SEQ ID NO:44.

[3] = target: T4, GITR antigen (R&D systems, disulfide-linked homodimer; 689-GR) (human, UniProt Q9Y5U5 26-161, R-PE labeled in the suspension array assay; unlabeled and amine-coupled to the chip in SPR); test: Luminex suspension array, competitor at 20 µg/ml pre-incubated with R-PE labeled GITR antigen; captured antibody 231-32-15
T4 construct: also called R-PE labeled GITR antigen
T4 sequence (looked up): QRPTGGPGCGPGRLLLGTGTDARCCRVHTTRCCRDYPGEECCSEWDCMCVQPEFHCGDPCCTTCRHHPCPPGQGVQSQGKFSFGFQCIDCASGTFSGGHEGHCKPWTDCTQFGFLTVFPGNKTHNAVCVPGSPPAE
Method: (§6) The bead mixture and the antigen/antibody mixture were mixed 1:1 (20 μl from each) and incubated for one additional hour under shaking conditions (20° C., 650 rpm). Directly before the measurement, 40 μl of assay buffer was added to each well and analysis was performed using a Luminex® 200 system (Millipore) and a readout of 100 beads in 48 μl sample volume. Binding was determined using the MFI values of the non-competed control (100% binding, only assay buffer as competing compound).

[4] = target: T5, V1M/Q62P/S63G cynomolgus GITR (on 1624-5 cells) (cynomolgus, UniProt Q9Y5U5 26-241 (human entry)); test: flow cytometry on 1624-5 cells, 2 µg/ml antibody
T5 construct: V1M lies in the signal peptide; also called mutant cynomolgus GITR V1M/Q62P/S63G
T5 chain: T3 chain with Q37P, S38G
Method: as §4, §5

human OX40 (on cells) = target: T6, human OX40 (on cells) (human, UniProt P43489 29-277); test: flow cytometry on Jurkat cells expressing OX40 only
T6 construct: also called huOX40; TNFRSF4
T6 sequence: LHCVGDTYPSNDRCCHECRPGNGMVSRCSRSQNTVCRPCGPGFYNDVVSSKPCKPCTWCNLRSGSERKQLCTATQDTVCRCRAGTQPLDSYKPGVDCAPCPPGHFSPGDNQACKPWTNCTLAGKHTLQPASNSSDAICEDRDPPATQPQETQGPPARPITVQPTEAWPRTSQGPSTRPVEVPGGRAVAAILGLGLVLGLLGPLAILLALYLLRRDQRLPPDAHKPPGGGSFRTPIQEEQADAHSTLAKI
Method: as §1

[5] = target: T7, human GITR D60A mutant (on 1624-5 cells) (human, UniProt Q9Y5U5 26-241); test: flow cytometry on 1624-5 cells, 2 µg/ml antibody, MFI ratio to polyclonal antibody, mutant versus wild type
T7 chain: T1 sequence with D35A
Method: as §2, §3

[6] = target: T4, GITR antigen (R&D systems, …); test: Luminex suspension array, m6C8 captured on beads, R-PE labeled GITR antigen; data not shown
Method: as §6

[7] = target: T4, GITR antigen (R&D systems, …); test: SPR (BIAcore), GITR antigen immobilized on the chip, antibody at 300 nM
Method: Flow cell 2 contained GITR antigen in low density (667 RU), medium density was assessed in flow cell 3 (1595 RU) and in flow cell 4, high density was achieved (4371 RU). In flow cell 1, ovalbumin (1289 RU, Pierce ThermoFisher 77120) was immobilized for reference. Immobilization was performed according to a standard protocol from the manufacturer (GE Healthcare) for amine coupling (activation of surface with 0.4 M EDC and 0.1 M NHS, GE Healthcare Amine coupling kit, BR-1000-50). […] Afterwards anti-GITR antibodies were run through the different surfaces at a concentration of 300 nM (45 μg/ml) for 240 seconds at 5 μl/min. […] A dissociation time of 60 seconds was included before adding the competing antibody (300 nM, 5 μl/min).

- binding result (human GITR (on cells)): binds
- percentage of reduction in binding relative to wild type GITR [1]: 59%
- binding result [2]: no binding (tested: 2 µg/ml)
- binding result [3]: binds
- binding result [4]: binds
B1: pab1876 (antibody, human IgG1, V domains shown)
VH: QVQLVQSGAEVKKPGASVKVSCKGSGYTFTDYAMYWVRQAPGQGLEWIGVIRTYSGDVTYNQKFKDRATMTVDKSISTAYMELSRLRSDDTAVYYCAKSGTVRGFAYWGQGTLVTVSS
VL: DIVMTQSPDSLAVSLGERATINCKSSQSLLNSGNQKNYLTWYQQKPGQPPKLLIYWASTRESGVPDRFSGSGSGTDFTLTISSLQAEDVAVYHCQNDYSYPYTFGQGTKLEIKR
notes: also called bivalent monospecific antibody pab1876; pab1876w (same chains without light chain T109S)

- binding result [3]: binds
B2: pab1875 (antibody, V domains shown)
VH: B1 VH
VL: DIVMTQSPPTLSLSPGERVTLSCKSSQSLLNSGNQKNYLTWYQQKPGQAPRLLIYWASTRESGIPARFSGSGSGTDFTLTISSLQPEDFAVYHCQNDYSYPYTFGQGTKLEIK

- binding result (human OX40 (on cells)): binds
B3: pab2049 (antibody, human IgG1, V domains shown)
VH: EVQLVESGGGLVQPGGSLKLSCAASGFTFSGSAMHWVRQASGKGLEWVGRIRSKANSYATAYAASVKGRFTISRDDSKNTAYLQMNSLKTEDTAVYYCTSGIYDSSGYDYWGQGTLVTVSS
VL: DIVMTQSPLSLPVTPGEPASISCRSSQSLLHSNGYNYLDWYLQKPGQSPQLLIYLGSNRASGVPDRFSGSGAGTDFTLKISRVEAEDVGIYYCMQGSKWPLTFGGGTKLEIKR
notes: also called bivalent monospecific antibody pab2049; pab2049w (same chains without light chain T109S)

- percentage of increase in binding relative to wild type GITR [1]: 62%
- percentage of reduction in binding relative to wild type GITR [5]: 10%
- binding result [6]: binds
B4: m6C8 (antibody, V domains shown)
VH: QVTLKESGPGILKPSQTLSLTCSFSGFSLSTSGMGVGWIRQPSGKGLEWLAHIWWDDDKYYNPSLKSQLTISKDTSRNQVFLKITSVDTADAATYYCARTRRYFPFAYWGQGTLVTVSS
VL: DIVMTQSQKFMSTSVGDRVSVTCKASQNVGTNVAWYQQKPGQSPKALIYSASYRYSGVPDRFTGSGSGTDFTLTINNVHSEDLAEYFCQQYNTDPLTFGAGTKLEIK
notes: Generated from the variable regions of antibody 6C8 of WO 2006/105021; also called murine antibody 6C8

- percentage of reduction in binding relative to wild type GITR [1]: 37%
- percentage of reduction in binding relative to wild type GITR [5]: 82%
- binding result [2]: no binding (tested: 2 µg/ml)
- binding result [4]: binds
- binding result [7]: binds
B5: chimeric parental 231-32-15 antibody (antibody, V domains shown)
VH: QVQLLQSGTELVRPGVSVKISCKGSGYTFTDYAMYWVKQSHAKSLEWIGVIRTYSGDVTYNQKFKDKATMTVDKSSSIAYMELARLSSEDSAIYYCAKSGTVRGFAYWGQGTLVTVSS
VL: DIVMTQSPSSLTVTAGEKVIMSCKSSQSLLNSGNQKNYLTWYQQKPGQPPKLLIYWASTRESGVPDRFTGSGSGTDFTLTISSVQAEDLAVYHCQNDYSYPYTFGGGTKLEIK
notes: Chimeric antibody
